The values that follow come from paper PMC3393671.

This assay has as its target ROP5 of T. gondii strain RH-YFP (isoforms not told apart), F2YGR7. The assay can be described thus: pull-down (quantitated Western blot). The conditions noted are these: chain shown with the change; 25 µg protein/100 µl 1:1 bead suspension; RH-YFP strain T. gondii lysates; 3E2 antibody (anti-ROP5); GST signal subtracted; parent: est. 100; read off a plot. (In western blotting, separated proteins are transferred to a membrane and probed.)

Substitutions are numbered along the chain they refer to. In names and notes the source's numbering stands.

Chain of ROP5 of T. gondii strain RH-YFP (isoforms not told apart), F2YGR7 (F2YGR7 25-549): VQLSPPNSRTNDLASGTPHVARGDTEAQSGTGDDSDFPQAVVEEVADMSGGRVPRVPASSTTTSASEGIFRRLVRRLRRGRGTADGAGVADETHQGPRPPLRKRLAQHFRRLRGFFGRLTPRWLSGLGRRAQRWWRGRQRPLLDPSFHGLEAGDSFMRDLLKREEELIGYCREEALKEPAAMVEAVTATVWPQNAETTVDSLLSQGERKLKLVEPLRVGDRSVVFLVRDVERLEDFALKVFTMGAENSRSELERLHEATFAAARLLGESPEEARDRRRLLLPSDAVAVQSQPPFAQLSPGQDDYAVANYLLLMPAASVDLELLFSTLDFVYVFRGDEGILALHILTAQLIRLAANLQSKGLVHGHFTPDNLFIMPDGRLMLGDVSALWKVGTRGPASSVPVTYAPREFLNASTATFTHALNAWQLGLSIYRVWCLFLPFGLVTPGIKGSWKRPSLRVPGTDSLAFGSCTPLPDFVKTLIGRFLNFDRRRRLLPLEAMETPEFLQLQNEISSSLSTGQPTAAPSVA

B1: GST-Irga6, Q9QZ85 T102D (protein)
chain: MGQLFSSPKSDENNDLPSSFTGYFKKFNTGRKIISQEILNLIELRMRKGNIQLTNSAISDALKEIDSSVLNVAVTGETGSGKSSFINTLRGIGNEEEGAAKDGVVEVTMERHPYKHPNIPNVVFWDLPGIGSTNFPPNTYLEKMKFYEYDFFIIISATRFKKNDIDIAKAISMMKKEFYFVRTKVDSDITNEADGKPQTFDKEKVLQDIRLNCVNTFRENGIAEPPIFLLSNKNVCHYDFPVLMDKLISDLPIYKRHNFMVSLPNITDSVIEKKRQFLKQRIWLEGFAADLVNIIPSLTFLLDSDLETLKKSMKFYRTVFGVDETSLQRLARDWEIEVDQVEAMIKSPAVFKPTDEETIQERLSRYIQEFCLANGYLLPKNSFLKEIFYLKYYFLDMVTEDAKTLLKEICL
As to B1, the percent of parent (% of wild-type intensity) is 110.

B2: GST-Irga6, Q9QZ85 K169E (protein)
chain: B1 chain with D102T, K169E
As to B2, the percent of parent (% of wild-type intensity) is 22.

B3: GST-Irga6, Q9QZ85 Q198E (protein)
chain: B1 chain with D102T, Q198E
B3: the percent of parent (% of wild-type intensity) was 32.

B4: GST-Irga6, Q9QZ85 N191R (protein)
chain: B1 chain with D102T, N191R
Regarding B4, the percent of parent (% of wild-type intensity) stood at 30.

B5: GST-Irga6, Q9QZ85 V205R (protein)
chain: B1 chain with D102T, V205R
On to B5, for which the percent of parent (% of wild-type intensity) came to 10.

B6: GST-Irga6, Q9QZ85 K196D (protein)
chain: B1 chain with D102T, K196D
B6: the percent of parent (% of wild-type intensity) came to 1.8.

B7: GST-Irga6, Q9QZ85 G195R (protein)
chain: B1 chain with D102T, G195R
B7: the percent of parent (% of wild-type intensity) turned out to be 6.5.

B8: GST-Irga6, Q9QZ85 E142R (protein)
chain: B1 chain with D102T, E142R
With B8, the percent of parent (% of wild-type intensity) was 73.

B9: GST-Irga6, Q9QZ85 G103R (protein)
chain: B1 chain with D102T, G103R
As for B9, the percent of parent (% of wild-type intensity) worked out at 43.

B10: GST-Irga6, Q9QZ85 T108D (protein)
chain: B1 chain with D102T, T108D
Turning to B10, the percent of parent (% of wild-type intensity) came to 77.

B11: GST-Irga6, Q9QZ85 N220R (protein)
chain: B1 chain with D102T, N220R
Take B11: the percent of parent (% of wild-type intensity) came to 20.

B12: GST-Irga6, Q9QZ85 C213R (protein)
chain: B1 chain with D102T, C213R
For B12, the percent of parent (% of wild-type intensity) is 3.3.
